Measurements published in paper PMC10861901.

Molecular target: A. fulgidus DsrC-trisulfide (Archaeoglobus fulgidus)
Assay: SPR

Kd: 200 nM
Substance: DsrMKJOP complex of Archaeoglobus fulgidus (from UniProt O29749 1-332; O29748 1-555; O29747 1-142; O29751 27-269; O29750 1-395)
